Test: label from the status in PepcDB records

Sequence	protein production
MPGSRDILADLVAFDTVSRESNLALIDYVRDYLAGFGVDSELFFDADGRKANLYATIGPSDRGGVCLSGHTDVVPADGQAWSVPPFRLSERDGRLYGRGTADMKGYLACVLAAVPAFLAAPLRLPVHLAFSYDEEVGCLGVRSLLAALERRPHKPLLCIIGEPTELKPVLGHKGKLAMRCEVHGAACHSAYAPQGVNAIEYAARLIGRLGEIGARLAVPERHDRRFDPPYSTVQTGLIQGGRALNIVPAECRFDFEVRALPADDPRQVAEELRDYAESELLPRMRAVERSTDIRFTPLSAYPGLLTADDSQAAELIGLLSGSTDFSTVAFGTEGGLFHQAGIPAVICGPGSMDQGHKPDEFVSLAQLEACDALLARLAAW	failed
MGSLERSKKKAQVWKKAVIHFSLCFVMGFFTGFAPAGKASFFSNFETTSYTSTKSPIPPQPFENATYTQHSLLNRTLINSQSQAPAPAESREAEGETRSLSEKEDENQVKVTPRGLVIVVTPIITKDRYKNVLLRRMANTLRLVPPPLLWIVVEKHSDGEEKSSSTMLRKTGIMYRRIVFKEDFTSLESELDHQRNLALRHIEHHKLSGIVHFAGLNNIYDLDFFVKIRDIEVFGTWPMALLSANRKRVVVEGPVCESSQVLGWHLRKINNETETKPPIHISSFAFNSSILWDPERWGRPSSVEGTKQDSIKYVKQVVLEDDTKLKGLPAQDCSKIMLWRLKFPTRTRLST	failed
MNPEPRCPCVLLLDTSGSMQGAAIEALNQGLLSLKDELMKNSIAARRVEIAIVTFDSHINVIQDFVTADQFNPPILTAQGLTSMGAGIHKALDMVQERKSLYRANGVAYYRPWVFMITDGEPQGELDHLVEQAALRLQGDEVNKRVAFFSVGVENANMTRLNQIAVRTPLEHHHHHH	failed
MTTEPVDYVSPLVGTQSKHALSTGNTYPAIAMPWGMNFWVAQTGKMGDGWAYTYDADKIRGFKQTHQPSPWINDYGQFAIMPVTGKVVFDQDQRASWFSHKAEVAKPYYYKVYLADHDVTTEIAPTSRAAMFRFTFPESKDSYVVVDAFDNGSYVKVIPEENKIIGYTTKNSGGVPENFKNYFVLVFDKPFTFTAAVTNGNIRPGELEHHHHHH	failed
MAAPLCVKVEFGGGAELLFDGVKKHQVALPGQEEPWDIRNLLVWIKKNLLKERPELFIQGDSVRPGILVLINDADWELLGELDYQLQDQDSILFISTLHGG	not failed
HYIFPHARIKITRDSKDHTVSGNGLGIRIVGGKEIPGHSGEIGAYIAKILPGGSAEQTGKLMEGMQVLEWNGIPLTSKTYEEVQSIISQQSGEAEICVRLDLNM	not failed
SNQLQQLQNPGESPPVHPFVAPLSYLLGTWRGQGEGEYPTIPSFRYGEEIRFSHSGKPVIAYTQKTWKLESGAPMHAESGYFRPRPDGSIEVVIAQSTGLVEVQKGTYNVDEQSIKLKSDLVGNASKVKEISREFELVDGKLSYVVRMSTTTNPLQPHLKAILDKL	not failed
MESGIFGEGGSLPPLPVLLRGLQDLGLLGKLDIARRATLTGISLCFSVFLQHIGIMWIQVRTMDGKETHTVNSLSRLTKVQELRKKIEELFHVEPQLQRLFYRGKQMEDGHTLFDYDVRLNDTIQLLVRQSLALPLSTKERDSELSDSDSGYGVGHSESDKSSTHGEGTADGDDKTVWEDTDLGLYKVNEYVDVRDNIFGAWFEAQVVQVQKKALSEEEPCSSSAIMAPEDDIMYHIKYDDYPEHGVDIVKAKNVRARARTVIPWEDLEVGQVVMANYNVDYPRKRGFWYDVEICRKRQTRTARELYGNVMLLNDSQLNNCRIIFVDEVLKIELPNERSPLIGSPSRRKSGPSCQYCKDDENKPCRKCACHICGGREAPEKQVLCDECDMAFHLYCLQPPLTCVPPEPEWYCPSCRTDSSEVVQAGEKLKKSKKKAKMASATSSSRRDWGKGMACVGRTTECTIVPANHFGPIPGVPVGTMWRFRVQVSESGVHRPHVAGIHGRSNDGAYSLVLAGGYEDDVDNGNFFTYTGSGGRDLSGNKRTAGQSSDQKLTNNNRALALNCHSPINEKGAEAEDWRQGKPVRVVRNMKGGKHSKYAPAEGNRYDGIYKVVKYWPEKGKSGFIVWRYLLRRDDTEPEPWTREGKDRTRQLGLTMQYPEGYLEALANKEKNRKRPAKALEQGPSSSKIGKSKRKSTGPATTSPRVSKKSKLEPYTLPLQQANLIKEDKGNAKLWDDVLSSLQDGPYQIFLSKVKEAFQCICCQELVFRPVTTVCQHNVCKDCLDRSFRAQVFSCPACRYDLDHSSPTRVNQPLQTILNQLFPGYGSGR	failed
MDLFPEEIYVFTPDGRIIELPMGATAIDFAYAVHTDVGNSCVGVKVDRKPYPMSRPIDSGQTIEVITSASARPNATWLEHHHHHH	failed
SVMCAAIAAGAFAQGQGQGLAGINEATSLMTSYFDPATKLCYAIGAVLGLVGGIKTYGKFSSGDPDTSKTAASWFFACIFLIVAATILRSFF	failed
MMAQRSLFQCESSVDEELDRMEIRTLTRYGENRRRDKGVPIECDCNAKVVVVTSLDPVTTGKLFFSCPYEISDGPGQGCGFKRWWTVALCDEFDMIKEETTEMKKDLEAANKRVESLAEKIFLMEKKFETLEKKYESLNKYL	failed
YAYSASLRVRQLGKPFMDEFSRRTNTTVSLTCRDRLSMIHVDSSRPPEVASLRMEPGLRLPLATSAAGRAYLAATPKIERDHLLGEVAKKLGDEWPALEKSLEDSFREYEEFGFCLSLGEWDRNVNGAGVPLRLADGSIMALTCGAPSFQLSSEKLESSLAHQLVMLARDLESLGV	failed
MDEQAVSTSMKTVYIRIYTSVLYTSYTKPGNWSAVDRSAWSVSCSNVYADDDAKYGAHLAIDGEINTTWFTWGVANAGECWWNTVLDRPVTLTGFSVTKQSAYGSGYNLRSAEIKVRKEGETEWVTYPRVLTFRNFKGADPQYAAIEPPIPNVKEFRINCLTPDNYTGFAEINLYVKQLEHHHHHH	not failed
GKGKNIIVLHLESFQQFLIDYKLKEGDKEYEVTPFINSLYHSNATLAFPNFFHQVKAGKTSDAETMMENSLFGLNSGSFMVNYGGENTQFATPSILAQKGGYTSAVFHGNVGTFWNRNNAYKQWGYNYFFDSSYFSKQNSKNSFQYGLNDKYMFKDSIKYLEQMQQPFYTKFITVSNHYPYTSLKGESSEEGFPLAKTDDETINGYFATANYLDAALKSFFDYLKATGLYDNSIFVLYGDHYGISNSRNSSLAPLLGKDSETWSEYDNAMLQRVPYMIHIPGYTNGSIKETFGGEIDALPTLLHILGIDTSQFVQLGQDLLSPQNSQIVAQRTSGTYMTPEYTNYSGRLYNTQTGLEIT	failed
MSPAIITLLILVVAIIIFISDRLPMGLVAFMVPMALYFFGVIGVKDIFASIVNENVILIIAMCVLGAAFFKTGLAWQSSKILLKYAKTERSLSVLIFMISGVMSAFVSNSGTVAVLIPIVLGIAGTSQIKPIKLLMPLVFGATIGADISIIGSPGNLIAKNTIETFSKGNLSVPFFEYAKIGIPLMIACALLLFFFGSRLIPDRDGHEQSDVQMDYSHIPEWHKLLTLIVFVLAILGMVATDYVKFLPPIHIIACCAAIVLVLTGVLNQKETFNSFETLTVFMLAFMMPLGAALNSTGAGEMIARAVISVTGNSGVIVIMASLWILTWALTQVMSNTAACTLLCPVGWTIAQSIGADPRAVVIAIFIASSVAVCTPMAIPANSMIIGPGNVKFKDFLKPGLAISFVCFIVSMILLPVFYPFY	failed
NKYNKIANELIKIIGEDNIISITHCATRLRVMVKDREIINDKKVEKVDEVKGVFFTSGQYQIILGTGIVNKVYAEVEKMGLKTLSKKEQDELVKNNE	not failed
MIDCLVMAGGQGARMGFREKPLLSVCGQPMLLRVLSALRMACRRIAIVYSRHTPGVKRLCLSGALGAVECIEGPGSYVKDLRLGFSHISTPLLVAPADMPFLNPHHLNLFIDRALADGASIVNLSLRGRGLTGLSVFKHHRGWWRDVETNGCWALDVDTWEDFRRAGELCGGECTGEGLRLELLEHHHHHH	failed
KKKVLIYGAGSAGLQLANMLRQGKEFHPIAFIDDDRKKHKTTMQGITIYRPKYLERLIKKHCISTVLLAVPSASQVQKKVIIESLAKLHVEVLTIPNLDDLVNGKLSIGQLKEVSIDDLLGRVAVTPQAELMEANIKD	not failed
MSERKINDEPKSMLLLQRGEEFGKVNNGSKNRAFSSFTKFKIPSQFKTNSSITSFSNRREDIREPNSNSLFSMYNNDVLLKYDTTEVALATTNMFTHTVWNNKSEEIISYGYGSHVSFSCFIGFHY	failed
MAKKTLILYYSWSGETKKMAEKINSEIKDSELKEVKVSEGTFDADMYKTSDIALDQIQGNKDFPEIQLDNIDYNNYDLILIGSPVWSGYPATPIKTLLDQMKNYRGEVASFFTSAGTNHKAYVSHFNEWADGLNVIGVARDDSEVDKWSK	not failed
MSEGMMLTTLDRLTIYAVLCFISLCALGLGETTQAQLMPVLGTAASIFGIWLEMRSEQDTTQQPHR	failed
MNENDKEYQASLKSLETENIIDRKFYRPIGFYFAKLLSRTRVTPNMVTILSIFVGLGGGLCFVHTPYDLRWAVAGILCMVVANIMDCIDGQLARLTGIKSEIGRILDGIAGDIWFACIYICFIIRLTAEYPDALGSMTTGILIAVGLLSGISHLVQAAVTDYYKTLHLFFISPEKGKEFERSTSIRRRVKAMPHGVNRLFSSLYYYYTLIQERATPRLQRLLDQLEADYPQNTIPETLRQHLRKDSRRIMNIVDFLTFNGRTIPLFLIVLSGHIWLYFVFEILILNTVLVLGIRRHEAMCRHHLKERR	failed
KGMIRPRGLNQQRYVKEVLSNDINFGIGPAGTGKTYLAVACAVDALEREQIRRILLVRPAVEAGEKLGFLPGDLAQKIDPYLRPLYDALYEMLGFEYVAKLIEKQVIEVAPLAYMRGRTLNNSFIILDESQNTTVEQMKMFLTRIGFGSTAVITGDITQVDLPKGTRSGLTHVIDVLKDVPGISFTHFKPKDVVRHPLVQRIVEAYERFDDQLSDGPSGNNG	not failed
MWKRMTAKAEGLYIADTKSFVTKQMDKLDFDYGGIPGDLHFGLTKKAGAREPMFSRGTEIFNRRQISIVSIEECNEIALKMGVPRILPEWLGANVAVSGMPDLTSLKEGSRIIFPSGAALLCEGENDPCIQPGEVIQSYYPDQPKLASAFVRHALGIRGIVCIVERPGAVYTGDEIEVHSYQRKVKRKAERV	not failed
MGNNNSTKESTHDNHSDSSTHEEMDHSGSADVPEGLQESKNPKYKVGSQVIINTSHMKGMKGAEATVTGAYDTTAYVVSYTPTNGGQRVDHHKWVIQEEIKDAGDKTLQPGDQVILEASHMKGMKGATAEIDSAEKTTVYMVDYTSTTSGEKVKNHKWVTEDELSAKLEHHHHHH	not failed
MSLRAVRLHAKWDPRPEFKLGPKDIEGKLTWLGSKVWRYPEVRVEEVPEPRIEKPTEIIIKVKACGICGSDVHMAQTDEEGYILYPGLTGFPVTLGHEFSGVVVEAGPEAINRRTNKRFEIGEPVCAEEMLWCGHCRPCAEGFPNHCENLNELGFNVDGAFAEYVKVDAKYAWSLRELEGVYEGDRLFLAGSLVEPTSVAYNAVIVRGGGIRPGDNVVILGGGPIGLAAVAILKHAGASKVILSEPSEVRRNLAKELGADHVIDPTKENFVEAVLDYTNGLGAKLFLEATGVPQLVWPQIEEVIWRARGINATVAIVARADAKIPLTGEVFQVRRAQIVGSQGHSGHGTFPRVISLMASGMDMTKIISKTVSMEEIPEYIKRLQTDKSLVKVTMLNEGHHHHHH	not failed
MPFPPEVYVLLVAALPVVELRGAIPLGVALGLSPWESFLWALLGNLLVVPLALGLLPWAVGLATRMPLFARAWRALEVRVRLKGEAQVQRLGALGLFLFVAVPLPGTGAWSGAVLAVVLGVRRRYAFPALALGVVAAGLLVLLLTGGTVYGLNYLR	failed
